# Data reported in patent WO2016038310A1 (dated 2016).
# B1: anticorps monoclonal A8 (monoclonal antibody A8, hybridoma CNCM I-4828) (antibody, V domains shown)
# VH: EVQLQESGGGLVQPGGSRKLSCAASGFTFSDFGTHWIRQAPEKGLEWVAYISSGSSTRYYADTVKGRFTISRDDPKNTLFLQMTSLRSEDTAMYYCARSYDGYHVPSFAYWGQGTLVTVSA
# VL: DVLMTQTPLSLSVSLGDQASISCRSSQNIVHSNGNTYLEWYLQKPGQSPKLLIYRVSNRFSGIPDRFSGSSSGTDFTLKISRVEAEDLGVYYCFQGSHVPLTFGAGTKLELK
# notes: Purified antibody or hybridoma supernatant, depending on the assay; also called AcM A8; ligand A8
# What was measured:
# [1] = molecular target: T1, FSH humaine recombinante Gonal-F (recombinant human FSH, Merck Serono) (human, UniProt P01215 25-116; P01225 19-129); experiment: SPR (Biacore T100), A8 captured on anti-mouse Fc, hFSH injected
# T1 construct: Commercial recombinant preparation; also called hFSH Gonal F; hFSH
# [2] = molecular target: T2, FSH ovine dimérique (ovine follicle-stimulating hormone) (ovine, UniProt P01218 25-120; P01227 20-129); experiment: cell-based or functional assay
# [3] = molecular target: T2, FSH ovine dimérique (ovine …); experiment: SPR (Biacore T100), A8 captured on anti-mouse Fc, oFSH injected
# [4] = molecular target: T2, FSH ovine dimérique (ovine …); experiment: SPR (Biacore T100), A8 captured on anti-mouse Fc, oFSH injected 1,56 to 50nM
# [5] = molecular target: T1, FSH humaine recombinante Gonal-F …; experiment: SPR (Biacore T100), A8 captured on anti-mouse Fc, hFSH injected 1,56 to 50nM
# [6] = molecular target: T3, hCG Chorulon (human chorionic gonadotropin extracted from urine, MSD) (human, UniProt P01215 25-116; P0DN86 21-165); experiment: ELISA saturation binding, Kd estimated with GraphPad Prism (one site - specific binding)
# T3 construct: Commercial preparation
# [7] = molecular target: T4, eCG commerciale Chronogest (MSD) (equine, UniProt P01220 25-120; P08751 21-169); experiment: as above
# T4 construct: Commercial preparation; also called eCG Chronogest
# [8] = molecular target: T5, hCG Endo 5000 (purified human chorionic gonadotropin, Schering-Plough) (human, UniProt P01215 25-116; P0DN86 21-165); experiment: as above
# T5 construct: Commercial preparation; also called Gonadotropine Chorionique Endo5000
# T5 sequence (P01215 25-116 limits assumed, chain 1 of 2, other chains not shown): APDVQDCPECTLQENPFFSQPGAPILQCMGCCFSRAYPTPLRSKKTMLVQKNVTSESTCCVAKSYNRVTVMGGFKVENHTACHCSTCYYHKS
# T1 sequence (P01215 25-116 limits assumed, chain 1 of 2): as the sequence (P01215 25-116 limits assumed, chain 1 of 2, other chains not shown) above
# T1 sequence (P01225 19-129 limits assumed, chain 2 of 2): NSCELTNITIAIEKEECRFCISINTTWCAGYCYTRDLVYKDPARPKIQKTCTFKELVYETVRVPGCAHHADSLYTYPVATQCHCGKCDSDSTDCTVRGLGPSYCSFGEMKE
# T3 sequence (P01215 25-116 limits assumed, chain 1 of 2, other chains not shown): as the sequence (P01215 25-116 limits assumed, chain 1 of 2, other chains not shown) above
# T4 sequence (P01220 25-120 limits assumed, chain 1 of 2): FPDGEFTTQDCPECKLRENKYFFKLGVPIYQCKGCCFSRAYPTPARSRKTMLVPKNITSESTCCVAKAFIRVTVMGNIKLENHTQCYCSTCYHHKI
# T4 sequence (P08751 21-169 limits assumed, chain 2 of 2): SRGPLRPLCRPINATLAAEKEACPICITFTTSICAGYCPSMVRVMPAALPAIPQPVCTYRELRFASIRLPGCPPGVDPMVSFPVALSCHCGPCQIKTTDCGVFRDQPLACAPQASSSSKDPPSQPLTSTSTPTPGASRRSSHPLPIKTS
binder,measurement,setting,value
B1,koff,[1],0.0011 s⁻¹
same,kon,[1],240000 M⁻¹ s⁻¹
same,"sécrétion d'AMPc (cAMP secretion), bovine granulosa cells, oFSH 3ng/ml",[2],2.1 fold
same,"sécrétion d'AMPc (cAMP secretion), bovine granulosa cells, oFSH 12,5 ng/ml",[2],1.5 fold
same,koff,[3],0.00082 s⁻¹
same,kon,[3],130000 M⁻¹ s⁻¹
same,Kd,[4],6.3 nM
same,Kd,[5],4.7 nM
same,Kd,[6],~100 nM
same,Kd,[7],~100 nM
same,Kd,[8],~100 nM
